Test results as given in patent US20210113687A1, “METHODS FOR TREATING INFLAMMATION” (NEW YORK UNIVERSITY, priority 2013, published 2021).

System: BMDM
Test: qRT-PCR of BMDM (palmitate, cytokines, adipocyte conditioned media)
Format: cell-based, mouse
Settings: direct addition of cytokine
Description: Real-time Quantitative RT-PCR Analysis RNA (0.5-1 μg) was reverse transcribed using iScript™ cDNA Synthesis Kit (Biorad) and RT-PCR analysis was conducted using kapa SYBR green Supermix (kappa syber) and a Mastercycler Realplex (Eppendorf) the primers used are listed. Fold change in mRNA expression was calculated using the comparative cycle method (ΔΔCt).
Cell culture. Primary bone marrow derived macrophage (BMDM) was prepared by flushing the bone marrow of the tibia and femur of 6-8 week old C57/B6 mice. The cells were grown in DMEM supplemented with 15% L929-conditioned media, 10% FBS and 1% penicillin/streptomycin for 7 days. BMDM were stimulated 250 pM palmitate conjugated with BSA or BSA as a control for 24 hours, or TNFα (10 ng/ml, 410-MT-010; R&D systems), IL-6 (40 nglml, 406-ML-005; R&D systems) and IL-4 (1 Onglml, 404-ML-010; R&D systems) for 24 h. In some assays, differentiated BMDM were treated with conditioned media from 3T3-L1 adipocytes differentiated as described (Lin, et al., J Biol Chem, 2005; 280:4617-4626) and treated with 250 pM palmitate conjugated with BSA or BSA for 24 hours. In certain experiments, anti-TNFα (0.4 μg/ml, AF-410-NA, R&D systems) or anti-IL-6 (0.025 μg/ml, MAB406; R&D systems) blocking antibody or IgG control (Normal Goat IgG: AB-108-C, Rat IgG1: MAB005; R&D systems) was added to conditioned media. […]

B1: IL-6: cytokine, 406-ML-005 R&D systems (protein, UniProt P08505 25-211, looked up)
Interleukin-6: FPTSQVRRGDFTEDTTPNRPVYTTSQVGGLITHVLWEIVEMRKELCNGNSDCMNNDDALAENNLKLPEIQRNDGCYQTGYNQEICLLKISSGLLEYHSYLEYMKNNLKDNKKDKARVLQRDTETLIHIFNQEVKDLHKIVLPTPISNALLTDKLESQKEWLRTKTIQFILKSLEEFLKVTLRSTRQT
Ntn1 mRNA in BMDMs: increased Ntn1 mRNA
